PMC7834972

Target: SARS-CoV-2 S-I53-50A.1NT1 fusion protein (SARS-CoV-2)
Test: SEC; Superose 6 increase 10/300 GL in TBS with 5% glycerol; fractions between 12-14 mL pooled; blue native gel of the pooled fractions

In the case of “SARS-CoV-2 S-I53-50A.1NT1 fusion protein”, the stoichiometry N is reported as 3.
